Results from the supplement of paper PMC9170038.

System: MS2 coat protein
Test: apparent KD of MS2 coat protein; designed switch direction (-1 OFF switch, 1 ON switch): -1; higher = weaker reporter binding
Summary of the method: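 Apparent KD, taken as the median over clusters for each design, was obtained by curve-fitting normalised cluster fluorescence. Designed RNA switches had been transcribed on Illumina chips by stalled E. coli RNA polymerase and titrated with SNAP-549-labelled MS2 coat protein, doubling from 0.7 or 1.5 nM to 3 µM.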

[1] = Eterna round: R95, input ligand: FMN 200 uM
[2] = Eterna round: R95, input ligand: microRNA oligo, concentration not stated
[3] = Eterna round: R95, input ligand: none
[4] = input ligand: microRNA oligo, concentration not stated

Sequence	apparent KD of MS2 coat protein (input ligand: FMN 200 uM) [µM]	apparent KD of MS2 coat protein (input ligand: none) [µM]	apparent KD of MS2 coat protein [2] [µM]	further results
AAAUCGGUAGAGGAUAUUGUACAGGAAACGGUGCAAGAAGGUUGCACAUGAGGAUCACCCAUGUUUAAUUGCGA [EX6 #50] (Eterna round: R97, puzzle: Exclusion 6)	0.0339	0.0362		
AAAUAAUAGAUAAAAUAAAACAUGAGGAUCACCCAUGUAGGCAGAUGAGGGUGAAACAAGCUUUUUGCUCGUCUUAU (puzzle: Sensor v3, turn-off variant 1)			0.477	apparent KD of MS2 coat protein [1]: 0.0639 µM; apparent KD of MS2 coat protein [3]: 0.0751 µM
UCGCUCCGUGUAGGAUAUCGUUGUAUUAUGCGGCGAGAAGGACAUGAGGAUCACCCAUGUAUGUUAUUAUCACGCGUGGCGCAA [Design 66] (Eterna round: R96, puzzle: Exclusion NG 1)	0.0148	0.0187		apparent KD of MS2 coat protein [4]: 0.0148 µM
CCUCUACAUGAGGAUCACCCAUGUGAGGAUAUCUCGGAACAACCACUUAAGGCACUCCAGAGAAGGCACGUGUA [Onsote] (puzzle: Exclusion 1)			0.0155	
UUCUUCUCUGUUAGGAUAUUCUCCGCAGAUGCCUGGAAGAAGGGACAUGAGGAUCACCCAUGUAGUGUAAGCUA [Eternabot (L2) Solution 58] (Eterna round: R97, puzzle: Brourd's mod of Exclusion 4)	0.0406	0.0628		
UUAUUUUUUGAGGAUAUGCGACGUUUUUUCGUCGUAGAAGGCGAUACAUGAGGAUCACCCAUGUUUAUGGGCAU [LRO-Ex6-13] (puzzle: Exclusion 6)			0.0738	
ACUAGAUGAGGAUAUACACAUUUUAGUGUUCCUCUAGAUUAACAUGAGGAUCACCCAUGUAGAAGGCAUCAAUU [Exclusion 2 - 11] (puzzle: Exclusion 2)			0.0578	
GCGGGAAAAGGAUAUGAGAGGUAAUACAUGAGGAUCACCCAUGUGAUAGACUCUGUGCUUUUAGAAGGUUUAUGUC [Eternabot (L1) Solution 19] (Eterna round: R97, puzzle: Exclusion 5)	0.0143	0.0153		
UUUUAACAUGAGGAUCACCCAUGUGAGGAUAUCGAAAUUUAUAUUAAUAUUAAUUUAACGAGAAGGCACAUUUU [JMF 31] (puzzle: Exclusion 1)			0.0885	
UAUAUAUAGUAAGGAUAUGUAAUUAUCUUAUAAACAGAAGGUACUGACAUGAGGAUCACCCAUGUUUUAGUGUGGGCAUGUAGA [JMF's solution 39] (Eterna round: R96, puzzle: Exclusion NG 1)				apparent KD of MS2 coat protein [4]: 0.0498 µM
UAGAUGGGAGGAUAUACGUAGAUACAGAUUCAUGUAGUGCUACAUGAGGAUCACCCAUGUAGAAGGCCCGUCUU [JL-ex2-2.19 Mayanne mod] (puzzle: Exclusion 2)			0.0352	
GCGACAGCGGUUAGGAUAUAUGUUAGGACGUAGAUAUAGAAGGAACAUGAGGAUCACCCAUGUUUAAAAUGGGA [Eternabot (L1) Solution 71] (Eterna round: R97, puzzle: Brourd's mod of Exclusion 4)	0.0695	0.0719		
CCGUCGAUAGGAUAUACUCCAAGCGAUGGGUGAACCUUUGGACUUGAGGAUCACCCAAGUAGAAGGAUUGACUU [Aorbete] (Eterna round: R97, puzzle: Exclusion 2)	0.122	0.071		
UCUGGUCGAGGAUAUACAUGAGGAUCACCCAUGUGGUUACGUGACGAUAGUCACGAAUGUAGAAGGCGACCAGA [E3/4-A2] (Eterna round: R97, puzzle: Exclusion 3)	0.326	0.23		
CCUUUGUCAGGAUAUCGAAAAGGGAGGCCAAAGGCCUCCGGUGAGAAGGGACAUGAGGAUCACCCAUGUGAAAA [Soonbidibe] (puzzle: Exclusion 4)			0.0575	
UGAGUGCUGCGAGGAUAUACAUGAGGAUCACCCAUGUAAUCGUGUGAGGCAAAGCCUCACACGAUGUAGAAGGCGCAGUACUCU [Mat - Exclusion NG 2 - Mod of JL - D23] (Eterna round: R96, puzzle: Exclusion NG 2)	0.0128	0.0182		apparent KD of MS2 coat protein [4]: 0.0114 µM
GGAGCGAUUCUCUUAGCAGACAUGAGGAUCACCCAUGUAUGCAAGCUCUUAUUUUGCUCGUCUUACCGGGAGUUGCU [Ridizaer] (puzzle: Sensor v3, turn-off variant 1)			0.0207	apparent KD of MS2 coat protein [1]: 0.0136 µM; apparent KD of MS2 coat protein [3]: 0.013 µM
UUUUCGUCAGGAUAUUCUACUUAUUACAUGAGGAUCACCCAUGUGUAUGUACAAGGGUGUGAAGAAGGGACUUUUU [LRO-Excl5-10-mod A17d by Omei] (Eterna round: R97, puzzle: Exclusion 5)	0.305	1.07		
CAGCUGAAUGUGAGGAUAUGUCGAGCGAUAGCUCGAUAGAAGGCACAUGAGGAUCACCCAUGUCUCAACAGCUG [BmEx4/2-C4] (Eterna round: R97, puzzle: Brourd's mod of Exclusion 4)	0.349	0.0283		
GCAUUUGUAGGAUAUACAUGAGGAUCACCCAUGUCGAGACGUGCAAGGCUUCCCAACUGUAGAAGGACGCGGCC [Eternabot (L1) Solution 61] (Eterna round: R97, puzzle: Exclusion 3)	0.0308	0.0274		
GUCAGGAAAGGAUAUACAAGUAGUCACUCUCUUUGCAGUUCACAUGAGGAUCACCCAUGUAGAAGGUUCGGACG [EX2 C.9] (Eterna round: R97, puzzle: Exclusion 2)	0.0389	0.0141		
AAGUAGGCAGGAUAUACAUGAGGAUCACCCAUGUGCCUAUACAAGGUAAUCUUGGGAGGUAGAAGGGCCUACAA [ChP 13.04.2015 #3] (puzzle: Exclusion 3)			0.033	
CGCUAUGCCGAGGAUAUUCUUGGUAUGCAUCUAGGAGAAGGCGGCACAUGAGGAUCACCCAUGUCAAAACAUAU [Eternabot (L1) Solution 97] (Eterna round: R97, puzzle: Exclusion 6)	0.029	0.0284		
CGAUGCAAAGUAAGGAUAUGCUUCCGGAAACGGAGGCAGAAGGUACAUGAGGAUCACCCAUGUUAAAAGCAUCG [Explosion 3 - Jieux - Brourd's mod of Exclusion 4] (Eterna round: R97, puzzle: Brourd's mod of Exclusion 4)	0.0163	0.0142		
AAUUUACAUGAGGAUCACCCAUGUGAGGAUAUGGAUUCGCUGGCCGUAGCCAGUGGAUCCAGAAGGCGCGUGAU [JL-ex1-4.28] (Eterna round: R97, puzzle: Exclusion 1)	0.182	0.0982		
CUCAUGUGAGGAUAUGAGUUAGGGCGAGAGCCCUAUGAAAAUUAGAAGGCACAUGAGGAUCACCCAUGUGAGAA [Rerige] (Eterna round: R97, puzzle: Exclusion 4)	0.211	0.169		
AGCUGUGGCCGAGGAUAUCCACAUGAGGAUCACCCAUGUCGAUACGCCGUUAAAGGCGAUAUAAGGGAGAAGGCGGUCUCAGCA [Eli eng2 - 052] (Eterna round: R96, puzzle: Exclusion NG 2)	0.00735	0.0102		apparent KD of MS2 coat protein [4]: 0.00669 µM
